Substitutions are numbered along the chain they refer to.
Legend:
Assay in all cases: EMSA
Details in all cases: tags: MBP fusion
ZFP SBS#297 = target: T1, ZFP SBS#297 (synthetic)
T1 chain: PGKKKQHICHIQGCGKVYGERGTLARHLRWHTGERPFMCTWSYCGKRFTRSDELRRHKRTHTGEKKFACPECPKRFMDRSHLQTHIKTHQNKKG
Description: (§1) Affinity is measured by titrating purified protein against a fixed amount of labeled double-stranded oligonucleotide target. The target typically comprises the natural binding site sequence flanked by the 3 bp found in the natural sequence and additional, constant flanking sequences. The natural binding site is typically 9 bp for a three-finger protein and 2×9 bp +intervening bases for a six finger ZFP. […] For the assay the target is added at a concentration of 1 nM or lower (the actual concentration is kept at least 10-fold lower than the expected dissociation constant), purified ZFPs are added at various concentrations, and the reaction is allowed to equilibrate for at least 45 min. In addition the reaction mixture also contains 10 mM Tris (pH 7.5), 100 mM KCl, 1 mM MgCl2, 0.1 mM ZnCl2, 5 mM DTT, 10% glycerol, 0.02% BSA. (NB: in earlier assays poly d(IC) was also added at […].) The equilibrated reactions are loaded onto a 10% polyacrylamide gel, which has been pre-run for 45 min in Tris/glycine buffer, then bound and unbound labeled target is resolved by electrophoresis at 150V.

ZFP SBS#303 = ZFP SBS#303 (synthetic)
Description: as §1

ZFP SBS#305 = ZFP SBS#305 (synthetic)
Description: as §1

ZFP SBS#306 = target: T2, ZFP SBS#306 (synthetic)
T2 chain: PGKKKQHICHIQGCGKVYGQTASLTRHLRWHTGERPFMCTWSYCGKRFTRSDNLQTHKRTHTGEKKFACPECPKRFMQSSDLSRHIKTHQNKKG
Description: as §1

ZFP SBS#300 = target: T3, ZFP SBS#300 (synthetic, UniProt P08047)
T3 chain: T2 chain with S23D, T25R, T56R
Description: as §1

ZFP SBS#298 = target: T4, ZFP SBS#298 (synthetic)
T4 chain: T2 chain with A22G, S23E, T25R, T56K, Q78T, S80G
Description: as §1

ZFP SBS#304 = target: T5, ZFP SBS#304 (synthetic)
T5 chain: T2 chain with S23D
Description: as §1

ZFP SBS#302 = ZFP SBS#302 (synthetic)
Description: as §1

ZFP SBS#301 = target: T6, ZFP SBS#301 (synthetic)
T6 chain: T2 chain with T21S, S23D, T25R
Description: as §1

ZFP SBS#299 = ZFP SBS#299 (synthetic)
Description: as §1

ZFP SBS#307 = target: T7, ZFP SBS#307 (synthetic)
T7 chain: T2 chain with Q20R, T21S, A22D, S23E, T25R, R50Q, D52G, T56R, S80G, D81N
Description: as §1

ZFP SBS#314 = ZFP SBS#314 (synthetic)
Description: as §1

ZFP SBS#312 = target: T8, ZFP SBS#312 (synthetic)
T8 chain: T1 chain with R50N, S51R, E53N, R55Q, D78Q, R79S, S80G, Q83S, T84R
Description: as §1

ZFP SBS#311 = target: T9, ZFP SBS#311 (synthetic)
T9 chain: T2 chain with Q20D, T21R, A22S, S23T, R50N, S51R, T56R, S80G, D81H
Description: as §1

ZFP SBS#309 = ZFP SBS#309 (synthetic)
Description: as §1

ZFP SBS#316 = target: T10, ZFP SBS#316 (synthetic)
T10 chain: T1 chain with R50Q, S51R, E53N, R55Q, D78Q, R79S, S80G, Q83S, T84R
Description: as §1

ZFP SBS#315 = ZFP SBS#315 (synthetic)
Description: as §1

ZFP SBS#318 = target: T11, ZFP SBS#318 (synthetic)
T11 chain: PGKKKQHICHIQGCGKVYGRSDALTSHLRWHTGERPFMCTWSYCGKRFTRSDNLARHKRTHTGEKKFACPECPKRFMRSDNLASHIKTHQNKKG
Description: as §1

ZFP SBS#319 = ZFP SBS#319 (synthetic, UniProt P08047)
Description: as §1

ZFP SBS#320 = ZFP SBS#320 (synthetic)
Description: as §1

ZFP SBS#323 = ZFP SBS#323 (synthetic)
Description: as §1

ZFP SBS#321 = ZFP SBS#321 (synthetic)
Description: as §1

ZFP SBS#324 = ZFP SBS#324 (synthetic)
Description: as §1

ZFP SBS#350 = target: T12, ZFP SBS#350 (synthetic)
T12 chain: T1 chain with E20T, R21S, T23H, A25T, E53N, R55T, R79C, S80R, H81D, Q83T
Description: as §1

ZFP SBS#251 = ZFP SBS#251 (synthetic)
Description: as §1

ZFP SBS#352 = ZFP SBS#352 (synthetic)
Description: as §1

ZFP SBS#355 = target: T13, ZFP SBS#355 (synthetic)
T13 chain: T2 chain with Q20E, T21K, S23N, Q55T, T56R, S79R, D81N, S83V
Description: as §1

ZFP SBS#354 = ZFP SBS#354 (synthetic)
Description: as §1

ZFP SBS#358 = ZFP SBS#358 (synthetic)
Description: as §1

ZFP SBS#363 = ZFP SBS#363 (synthetic)
Description: as §1

ZFP SBS#361 = ZFP SBS#361 (synthetic)
Description: as §1

ZFP SBS#365 = ZFP SBS#365 (synthetic)
Description: as §1

ZFP SBS#367 = ZFP SBS#367 (synthetic)
Description: as §1

ZFP SBS#375 = target: T14, ZFP SBS#375 (synthetic)
T14 chain: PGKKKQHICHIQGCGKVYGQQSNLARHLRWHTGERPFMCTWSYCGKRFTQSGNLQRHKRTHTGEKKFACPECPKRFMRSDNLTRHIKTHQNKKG
Description: as §1

ZFP SBS#377 = target: T15, ZFP SBS#377 (synthetic)
T15 chain: T2 chain with T21S, A22G, S51G, N53A, Q55T, T56S, Q78R, S80D, D81A, S83T
Description: as §1

ZFP SBS#381 = target: T16, ZFP SBS#381 (synthetic)
T16 chain: T14 chain with Q20R, Q21S, S22D, N23E, A25T, G52S, N53D, R78Q, D80G, N81D
Description: as §1

ZFP SBS#384 = target: T17, ZFP SBS#384 (synthetic)
T17 chain: T11 chain with R20D, S21R, D22S, S26T, R50D, S51R, D52S, N53H, N81A, S84R
Description: as §1

ZFP SBS#323 (synthetic), sequence (chain, as listed by the source): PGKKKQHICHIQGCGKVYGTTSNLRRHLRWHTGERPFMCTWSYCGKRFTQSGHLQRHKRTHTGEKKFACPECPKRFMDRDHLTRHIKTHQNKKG
ZFP SBS#309 (synthetic), sequence (chain, as listed by the source): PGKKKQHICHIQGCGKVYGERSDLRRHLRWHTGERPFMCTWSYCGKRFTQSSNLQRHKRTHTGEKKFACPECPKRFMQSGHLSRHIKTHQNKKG
ZFP SBS#305 (synthetic), sequence (chain, as listed by the source): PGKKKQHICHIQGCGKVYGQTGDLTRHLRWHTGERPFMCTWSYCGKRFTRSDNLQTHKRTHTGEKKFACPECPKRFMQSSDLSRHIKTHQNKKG
ZFP SBS#320 (synthetic), sequence (chain, as listed by the source): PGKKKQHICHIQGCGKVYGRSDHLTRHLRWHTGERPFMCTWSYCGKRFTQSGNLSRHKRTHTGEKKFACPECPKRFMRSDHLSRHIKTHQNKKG
ZFP SBS#319, sequence (P08047 other isoform, or with tags, fused parts or gaps): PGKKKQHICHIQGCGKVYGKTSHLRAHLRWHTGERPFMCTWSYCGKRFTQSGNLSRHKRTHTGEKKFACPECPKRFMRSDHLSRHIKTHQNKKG
ZFP SBS#354 (synthetic), sequence (chain, as listed by the source): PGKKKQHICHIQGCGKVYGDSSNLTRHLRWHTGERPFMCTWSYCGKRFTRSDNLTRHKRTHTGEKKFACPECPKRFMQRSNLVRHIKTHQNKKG
ZFP SBS#299 (synthetic), sequence (chain, as listed by the source): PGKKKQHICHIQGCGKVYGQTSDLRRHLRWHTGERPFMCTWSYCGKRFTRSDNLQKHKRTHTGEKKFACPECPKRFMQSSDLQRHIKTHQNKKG
ZFP SBS#365 (synthetic), sequence (chain, as listed by the source): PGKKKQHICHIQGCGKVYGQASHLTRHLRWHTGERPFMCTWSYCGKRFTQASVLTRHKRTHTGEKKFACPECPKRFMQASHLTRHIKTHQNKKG
ZFP SBS#302 (synthetic), sequence (chain, as listed by the source): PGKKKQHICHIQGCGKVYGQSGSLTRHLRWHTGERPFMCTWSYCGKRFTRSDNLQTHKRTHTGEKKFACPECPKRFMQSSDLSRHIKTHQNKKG
ZFP SBS#361 (synthetic), sequence (chain, as listed by the source): as the sequence (P08047 other isoform, or with tags, fused parts or gaps) above, with K20R, T21S, S22D, R25T, A26R, G52S, N53A, S55T, S83T counted along it
ZFP SBS#321 (synthetic), sequence (chain, as listed by the source): as the sequence (P08047 other isoform, or with tags, fused parts or gaps) above, with K20T, H23N, A26R, N53H, S55Q, R78D, S79R, D80S, S83T counted along it
ZFP SBS#358 (synthetic), sequence (chain, as listed by the source): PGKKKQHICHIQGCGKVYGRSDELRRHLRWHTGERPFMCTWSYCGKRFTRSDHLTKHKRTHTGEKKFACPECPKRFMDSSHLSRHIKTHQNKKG
ZFP SBS#314 (synthetic), sequence (chain, as listed by the source): as the sequence (P08047 other isoform, or with tags, fused parts or gaps) above, with K20D, T21R, H23S, R25T, A26R, G52S, S55Q, R78Q, D80G counted along it
ZFP SBS#352 (synthetic), sequence (chain, as listed by the source): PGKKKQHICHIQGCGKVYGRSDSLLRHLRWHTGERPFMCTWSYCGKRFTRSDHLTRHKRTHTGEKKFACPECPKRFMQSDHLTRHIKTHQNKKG
ZFP SBS#303 (synthetic), sequence (chain, as listed by the source): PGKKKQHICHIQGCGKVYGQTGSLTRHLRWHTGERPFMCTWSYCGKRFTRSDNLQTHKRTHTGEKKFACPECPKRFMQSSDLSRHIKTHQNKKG

B1: TGCGCGGCC (dsDNA)
DNA 1: TGCGCGGCC
DNA 2: GGCCGCGCA
ZFP SBS#297
  Kd: 0.5 µM

B2: GCTTAGGCA (dsDNA)
DNA 1: GCTTAGGCA
DNA 2: TGCCTAAGC
ZFP SBS#303
  Kd: 0.135 µM
ZFP SBS#305
  Kd: 0.23 µM
ZFP SBS#306
  Kd: 0.28 µM
ZFP SBS#300
  Kd: 0.4 µM
ZFP SBS#298
  Kd: 4 µM
ZFP SBS#304
  Kd: 0.23 µM
ZFP SBS#302
  Kd: 0.075 µM
ZFP SBS#301
  Kd: 0.35 µM
ZFP SBS#299
  Kd: 4 µM

B3: GAAGAAGCG (dsDNA)
DNA 1: GAAGAAGCG
DNA 2: CGCTTCTTC
ZFP SBS#307
  Kd: 0.0505 µM

B4: GGAGATGCC (dsDNA)
DNA 1: GGAGATGCC
DNA 2: GGCATCTCC
ZFP SBS#314
  Kd: 0.118 µM
ZFP SBS#312
  Kd: 2 µM
ZFP SBS#311
  Kd: 0.17 µM
ZFP SBS#309
  Kd: 4 µM
ZFP SBS#316
  Kd: 3 µM
ZFP SBS#315
  Kd: 0.265 µM

B5: TAGGAGATGC (dsDNA)
DNA 1: TAGGAGATGC
DNA 2: GCATCTCCTA
ZFP SBS#318
  Kd: 0.1 µM

B6: GGGGAAGGG (dsDNA)
DNA 1: GGGGAAGGG
DNA 2: CCCTTCCCC
ZFP SBS#319
  Kd: 0.125 µM
ZFP SBS#320
  Kd: 0.005 µM

B7: GGCGGAGAT (dsDNA)
DNA 1: GGCGGAGAT
DNA 2: ATCTCCGCC
ZFP SBS#323
  Kd: 0.6 µM
ZFP SBS#321
  Kd: 0.2 µM
ZFP SBS#324
  Kd: 0.2 µM

B8: TCCGAGGGT (dsDNA)
DNA 1: TCCGAGGGT
DNA 2: ACCCTCGGA
ZFP SBS#350
  Kd: 0.332 µM

B9: GCGGAGGCG (dsDNA)
DNA 1: GCGGAGGCG
DNA 2: CGCCTCCGC
ZFP SBS#251
  Kd: 0.0275 µM

B10: GGAGGGGTG (dsDNA)
DNA 1: GGAGGGGTG
DNA 2: CACCCCTCC
ZFP SBS#352
  Kd: 0.026 µM

B11: GAAGAGGAC (dsDNA)
DNA 1: GAAGAGGAC
DNA 2: GTCCTCTTC
ZFP SBS#355
  Kd: 0.02 µM
ZFP SBS#354
  Kd: 0.028 µM

B12: GGCTGGGCG (dsDNA)
DNA 1: GGCTGGGCG
DNA 2: CGCCCAGCC
ZFP SBS#358
  Kd: 0.225 µM

B13: GGGTTTGGG (dsDNA)
DNA 1: GGGTTTGGG
DNA 2: CCCAAACCC
ZFP SBS#363
  Kd: 0.2 µM
ZFP SBS#361
  Kd: 0.13 µM

B14: GGTGCTGGT (dsDNA)
DNA 1: GGTGCTGGT
DNA 2: ACCAGCACC
ZFP SBS#365
  Kd: 0.6 µM

B15: GGGGGCGGG (dsDNA)
DNA 1: GGGGGCGGG
DNA 2: CCCGCCCCC
ZFP SBS#367
  Kd: 0.06 µM

B16: GAGGAAGAT (dsDNA)
DNA 1: GAGGAAGAT
DNA 2: ATCTTCCTC
ZFP SBS#375
  Kd: 0.085 µM

B17: GTGTTGGCAG (dsDNA)
DNA 1: GTGTTGGCAG
DNA 2: CTGCCAACAC
ZFP SBS#377
  Kd: 0.089 µM

B18: GCAGCTGCGC (dsDNA)
DNA 1: GCAGCTGCGC
DNA 2: GCGCAGCTGC
ZFP SBS#381
  Kd: 0.0015 µM

B19: GTGGGCTTCA (dsDNA)
DNA 1: GTGGGCTTCA
DNA 2: TGAAGCCCAC
ZFP SBS#384
  Kd: 0.06 µM

From patent US20030068675, “Position dependent recognition of GNN nucleotide triplets by zinc fingers” (published 2003)
